This data set deals with K4 kissing-loop RNA reporter. Nature of the data set: apparent KD of K4 kissing-loop reporter; higher = weaker reporter binding. To be noted: Eterna round: R107. As for the experimental part:
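RNA-MaP round R107: designed RNA switches with theophylline, tryptophan, arginine or FMN aptamers are transcribed on-chip within common flanks. They are titrated with a labelled K4 kissing-loop RNA reporter in RNA-MaP buffer (100 mM Tris pH 7.5, 80 mM KCl, 4 mM MgCl2), without ligand or with the indicated ligand. Median apparent KD per design.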

Where [1] appears, read: input ligand: theophylline 20 uM.
[2] abbreviates: input ligand: tryptophan 2.4 mM.
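Further: bound reporter read as fluorescence of individual clusters on recovered sequencing chips by microscopy, with normalized cluster intensities fitted with a binding model.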

Regarding “CUACAUGCACAGGAGUGAUGUUUAUGGGCUCGAGGACCGGUACGGCCGCCACUCGUUAUGGCACGCAGUAGAUAUAGGCGAGGAA [theeternabot_sameState_KL_Trp_A_41]”, the “apparent KD of K4 kissing-loop reporter” value is, setting by setting: (input ligand: FMN 200 uM) 0.615 µM; (input ligand: arginine 13.2 mM) 0.381 µM; (input ligand: none) 0.605 µM; under setting [1], 0.448 µM; under setting [2], 0.871 µM.

Turning to “CUAUAUAGUGAUGUUAUAUAGAUAACAGAUACCAGCUAGAAAACUAGCCCUUGGCAGCUGAUAAGGGAAAGUAUAAUUGUGUAAA [AstroSTH-A#DifdesignED20.18]”, the “apparent KD of K4 kissing-loop reporter” value (input ligand: FMN 200 uM) was found to be 0.0821 µM; the “apparent KD of K4 kissing-loop reporter” value (input ligand: arginine 13.2 mM) stood at 0.073 µM; the “apparent KD of K4 kissing-loop reporter” value (input ligand: none) came to 0.076 µM; the “apparent KD of K4 kissing-loop reporter” value under setting [1] is 0.0648 µM; the “apparent KD of K4 kissing-loop reporter” value under setting [2] stood at 0.0737 µM.

In the case of “CUCCAACUUGAUGAUACCAGAGAGGAGGAAGUGAUGUUGACUCCGGCUACAUACUGGCGACUCCCUUGGCAGCAUUACGUCAUCC [theeternabot_sameState_KL_Theo_B_3]”, the “apparent KD of K4 kissing-loop reporter” value amounted to 0.389 µM (input ligand: FMN 200 uM); 0.265 µM (input ligand: arginine 13.2 mM); 0.318 µM (input ligand: none); 0.417 µM under setting [1]; 0.353 µM under setting [2].

For the sequence “CUCGAGUGAUGUUCGAUUAUGUAUACAGAUACCAGUGAAUUUUAACACCCUUGGCAGCUGGUAGAAUCAUUGUAAUUUUAACUAG [JR_ExcTheophyA_Sub001]”, the “apparent KD of K4 kissing-loop reporter” value stood at 0.175 µM (input ligand: FMN 200 uM); 0.26 µM (input ligand: arginine 13.2 mM); 0.218 µM (input ligand: none); 0.254 µM under setting [1]; 0.15 µM under setting [2].

Turning to “CUGACGCUGAUACGGUGGCCGAUGGUCGUGCGAGGACCGGUACGGCCGCCACUCGCAUGAGUGAUGUUCAUGUGUCGUCGUCGUC [#06 K4 Tryptophan A Exclusion]”, the “apparent KD of K4 kissing-loop reporter” value by setting is: (input ligand: FMN 200 uM) 0.135 µM; (input ligand: arginine 13.2 mM) 0.115 µM; (input ligand: none) 0.13 µM; under setting [1], 0.106 µM; under setting [2], 0.142 µM.

Regarding “CUGCCGUGCCAUGGGCCAGUGAUGUUGGAACGAGGACCGGUACGGCCGCCACUCGCUUAGCGUCAAAGGCGUCCCGAAUAGAAAG [theeternabot_exclusion_KL_Trp_A_14]”, the “apparent KD of K4 kissing-loop reporter” value reads like this: (input ligand: FMN 200 uM) 0.374 µM; (input ligand: arginine 13.2 mM) 0.23 µM; (input ligand: none) 0.34 µM; under setting [1], 0.317 µM; under setting [2], 0.374 µM.

In the case of “CUGCCGUUUACAGAUACCAGACUAAUAACGGCAGCACAGAAUGUGAGUGAUGUUCGCAUAGUCCCUUGGCAGCUGUAUAACAGUA [Theo B Ex t3]”, the “apparent KD of K4 kissing-loop reporter” value reads like this: (input ligand: FMN 200 uM) 0.219 µM; (input ligand: arginine 13.2 mM) 0.199 µM; (input ligand: none) 0.227 µM; under setting [1], 0.287 µM; under setting [2], 0.191 µM.

As to “CUUAAGACAUGAGUGAUGUUCAUGUCCGAAGGAGCGUGCGAAAGCACAGGUAGGUCGCGGACGUGAGUGAUGUUCAUGUAAGCGA [KL-XArg-A11 #analogue]”, the “apparent KD of K4 kissing-loop reporter” value worked out at 0.159 µM (input ligand: FMN 200 uM); 0.125 µM (input ligand: arginine 13.2 mM); 0.156 µM (input ligand: none); 0.154 µM under setting [1]; 0.14 µM under setting [2].

Turning to “CUUAUUUCUCGCUAUGAUGUUAGUUGAGCCAAGGAUAUUAAUGAAUUAAGAAGGUGGGUUUUUAAGUGAUGUUUUGAGACUGGCA [theeternabot_exclusion_KL_FMN_A_27]”, the “apparent KD of K4 kissing-loop reporter” value was 0.793 µM (input ligand: FMN 200 uM); 0.718 µM (input ligand: arginine 13.2 mM); 0.863 µM (input ligand: none); 0.727 µM under setting [1]; 0.568 µM under setting [2].

In the case of “CUUUUACAGUCGGCCGCCACUGACAGCACUUCAAAGACAGUAUAAGGGUAGUGAUGUUACUUUAUCAGGACCGGGACUACCUAAC [theeternabot_sameState_KL_Trp_B_3]”, the “apparent KD of K4 kissing-loop reporter” value by setting is: (input ligand: FMN 200 uM) 0.215 µM; (input ligand: arginine 13.2 mM) 0.121 µM; (input ligand: none) 0.205 µM; under setting [1], 0.279 µM; under setting [2], 0.358 µM.

Turning to “GAAAUCACGGAUGAUACCAGCCAGAACUCUCACAGUGAUGUUGUGCUUAAAUGAUUAGGAGGCCCUUGGCAGCAUACGCUAAUUU [theeternabot_sameState_KL_Theo_B_36]”, the “apparent KD of K4 kissing-loop reporter” value (input ligand: FMN 200 uM) was 0.324 µM; the “apparent KD of K4 kissing-loop reporter” value (input ligand: arginine 13.2 mM) worked out at 0.267 µM; the “apparent KD of K4 kissing-loop reporter” value (input ligand: none) stood at 0.313 µM; the “apparent KD of K4 kissing-loop reporter” value under setting [1] is 0.305 µM; the “apparent KD of K4 kissing-loop reporter” value under setting [2] was determined as 0.226 µM.

As to “GAACGAGUGAUGUUCGUUGGCAUGCAUUCCGAGGAUAUGGGAUUAGCCAGAAGGCGGAAUCAGUCUUCGAGUGAUGUUCGAAGAU [Same State FMN A GF 12]”, the “apparent KD of K4 kissing-loop reporter” value (input ligand: FMN 200 uM) is 0.112 µM; the “apparent KD of K4 kissing-loop reporter” value (input ligand: arginine 13.2 mM) is 0.104 µM; the “apparent KD of K4 kissing-loop reporter” value (input ligand: none) came to 0.116 µM; the “apparent KD of K4 kissing-loop reporter” value under setting [1] is 0.104 µM; the “apparent KD of K4 kissing-loop reporter” value under setting [2] is 0.111 µM.

As to “GAAUAAUAACAUGAGUGAUGUUCAUGUAAACGAGGACCGGUACGGCCGCCACUCGUUUCUCAUGUAAGCCGUACCAAUAACAAUA [KL-XTryp-A5 #analogue]”, the “apparent KD of K4 kissing-loop reporter” value reads like this: (input ligand: FMN 200 uM) 0.146 µM; (input ligand: arginine 13.2 mM) 0.142 µM; (input ligand: none) 0.151 µM; under setting [1], 0.147 µM; under setting [2], 0.237 µM.

“GAAUAAUAUGUACCAGUGAUGUUGGUACAACGAGGACCGGUACGGCCGCCACUCGGAUACGAGUGGAUACAUCACUGACCAUUCG [(H1)-(H2)-(Trp1)-(Trp2)-(T)'-(H)'-(T)''_Design9]”: the “apparent KD of K4 kissing-loop reporter” value is 0.326 µM (input ligand: FMN 200 uM); 0.308 µM (input ligand: arginine 13.2 mM); 0.368 µM (input ligand: none); 0.413 µM under setting [1]; 0.252 µM under setting [2].

On to “GAAUGGAGUGAUGUUCCAUUAACGAUCCUACGAGGACCGGUACGGCCGCCACUCGUAUUGCAGUGAUGUUGCAACCAGCCGUACU [Exclusion Tryptophan A GF 9]”, for which the “apparent KD of K4 kissing-loop reporter” value (input ligand: FMN 200 uM) amounted to 0.111 µM; the “apparent KD of K4 kissing-loop reporter” value (input ligand: arginine 13.2 mM) is 0.113 µM; the “apparent KD of K4 kissing-loop reporter” value (input ligand: none) turned out to be 0.114 µM; the “apparent KD of K4 kissing-loop reporter” value under setting [1] is 0.111 µM; the “apparent KD of K4 kissing-loop reporter” value under setting [2] was 0.102 µM.

As to “GACUCAUGUAGAAGGAGCGUCAGAAGCUACAGACAUGAGUGAUGUUCAUGUUAGUUGAUUUGACAGGUAGGUCGCUACAGCAGGA [KL-SSArg B15 #analogue]”, the “apparent KD of K4 kissing-loop reporter” value amounted to 0.28 µM (input ligand: FMN 200 uM); 0.207 µM (input ligand: arginine 13.2 mM); 0.247 µM (input ligand: none); 0.283 µM under setting [1]; 0.229 µM under setting [2].

For the sequence “GACUGGUUAACGAGUGAUGUUCGAUGGGAAGGAGCGCGCAGAAGUGCAGGUAGGUCGCCCUAUAACCAGGAAAUGGCUGGAUUAU [3.)]”, the “apparent KD of K4 kissing-loop reporter” value is, setting by setting: (input ligand: FMN 200 uM) 0.205 µM; (input ligand: arginine 13.2 mM) 0.224 µM; (input ligand: none) 0.205 µM; under setting [1], 0.252 µM; under setting [2], 0.145 µM.
